Experimental data published in patent US7354588B1, “Functional derivatives of ICAM-1 with altered ability to bind LFA-1 or HRV” (Dana Farber Cancer Institute, priority 1987, dated 2008).

Legend:
HRV14 = assay: Binding of [^35S]-Met labeled HRV14 to COS cells expressing ICAM-1 mutants; assay type: cell-based, human rhinovirus 14; conditions: 35S met-labeled HRV14 binding to COS cells expressing ICAM-1 mutant; normalized for percent of cells expressing mutant and for wild type binding; mean
RR1/1 mAb = assay: Indirect immunofluorescence flow cytofluorometry: mAb RR1/1 binding to COS cells expressing ICAM-1 mutants (SLFI, % CL203); assay type: cell-based; conditions: SLFI normalized to CL203 SLFI of the mutant
How it was run: (§1)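 Transfected COS cells expressing ICAM-1 point mutants were stained by indirect immunofluorescence and analysed by flow cytometry. Specific linear fluorescence intensity of CL203 is expressed relative to wild-type CL203; RR1/1, R6.5 and LB-2 SLFI are expressed relative to CL203 SLFI of the same mutant.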

LB-2 mAb = assay: Indirect immunofluorescence flow cytofluorometry: mAb LB-2 binding to COS cells expressing ICAM-1 mutants (SLFI, % CL203); assay type: cell-based; conditions: SLFI normalized to CL203 SLFI of the mutant
How it was run: as §1

CL203 mAb = assay: Indirect immunofluorescence flow cytofluorometry: mAb CL203 binding to COS cells expressing ICAM-1 mutants (SLFI, % WT); assay type: cell-based; conditions: SLFI of CL203 for mutant normalized to wild type CL203 SLFI; level of expression
How it was run: as §1

R6.5 mAb = assay: Indirect immunofluorescence flow cytofluorometry: mAb R6.5 binding to COS cells expressing ICAM-1 mutants (SLFI, % CL203); assay type: cell-based; conditions: SLFI normalized to CL203 SLFI of the mutant
How it was run: as §1

LFA-1 = biological target: T1, LFA-1 (Homo sapiens, UniProt P05107+P20701); assay: Adherence of COS cells expressing ICAM-1 or ICAM-1 mutants to plastic-bound purified LFA-1; assay type: cell-based; conditions: COS cells expressing ICAM-1 mutant adhering to LFA-1 coated plastic; normalized for percent of cells expressing mutant and for wild type binding; mean
T1 construct: endogenous in cells
T1 sequence (P20701 26-1170): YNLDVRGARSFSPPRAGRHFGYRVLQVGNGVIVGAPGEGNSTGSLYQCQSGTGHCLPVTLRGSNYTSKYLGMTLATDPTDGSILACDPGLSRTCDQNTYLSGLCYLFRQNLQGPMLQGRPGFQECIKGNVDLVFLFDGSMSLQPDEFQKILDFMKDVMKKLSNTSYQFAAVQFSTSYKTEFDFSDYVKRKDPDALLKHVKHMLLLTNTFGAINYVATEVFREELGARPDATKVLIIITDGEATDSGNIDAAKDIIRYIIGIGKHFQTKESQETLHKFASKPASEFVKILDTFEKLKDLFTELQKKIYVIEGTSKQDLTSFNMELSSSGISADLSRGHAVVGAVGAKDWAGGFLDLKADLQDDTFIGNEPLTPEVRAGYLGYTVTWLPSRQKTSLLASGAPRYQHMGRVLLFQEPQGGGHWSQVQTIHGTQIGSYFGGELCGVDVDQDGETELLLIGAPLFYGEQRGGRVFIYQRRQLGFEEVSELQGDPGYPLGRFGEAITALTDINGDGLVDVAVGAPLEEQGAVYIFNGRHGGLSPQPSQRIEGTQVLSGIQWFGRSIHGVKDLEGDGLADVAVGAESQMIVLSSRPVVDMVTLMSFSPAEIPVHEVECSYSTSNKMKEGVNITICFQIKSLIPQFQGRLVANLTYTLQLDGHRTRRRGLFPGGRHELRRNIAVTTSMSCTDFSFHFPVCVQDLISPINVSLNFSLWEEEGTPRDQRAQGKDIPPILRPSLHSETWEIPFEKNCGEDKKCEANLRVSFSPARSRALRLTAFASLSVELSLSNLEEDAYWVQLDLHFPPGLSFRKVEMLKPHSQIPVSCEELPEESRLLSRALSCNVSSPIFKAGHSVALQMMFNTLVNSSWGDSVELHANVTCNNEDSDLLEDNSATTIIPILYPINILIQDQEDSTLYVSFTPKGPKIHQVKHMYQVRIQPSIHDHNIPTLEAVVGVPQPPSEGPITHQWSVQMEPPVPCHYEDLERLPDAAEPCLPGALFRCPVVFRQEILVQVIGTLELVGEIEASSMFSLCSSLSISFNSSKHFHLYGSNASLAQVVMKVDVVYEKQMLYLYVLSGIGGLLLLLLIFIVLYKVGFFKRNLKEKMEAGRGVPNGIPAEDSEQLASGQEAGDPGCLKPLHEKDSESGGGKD
T1 sequence (P05107 23-769): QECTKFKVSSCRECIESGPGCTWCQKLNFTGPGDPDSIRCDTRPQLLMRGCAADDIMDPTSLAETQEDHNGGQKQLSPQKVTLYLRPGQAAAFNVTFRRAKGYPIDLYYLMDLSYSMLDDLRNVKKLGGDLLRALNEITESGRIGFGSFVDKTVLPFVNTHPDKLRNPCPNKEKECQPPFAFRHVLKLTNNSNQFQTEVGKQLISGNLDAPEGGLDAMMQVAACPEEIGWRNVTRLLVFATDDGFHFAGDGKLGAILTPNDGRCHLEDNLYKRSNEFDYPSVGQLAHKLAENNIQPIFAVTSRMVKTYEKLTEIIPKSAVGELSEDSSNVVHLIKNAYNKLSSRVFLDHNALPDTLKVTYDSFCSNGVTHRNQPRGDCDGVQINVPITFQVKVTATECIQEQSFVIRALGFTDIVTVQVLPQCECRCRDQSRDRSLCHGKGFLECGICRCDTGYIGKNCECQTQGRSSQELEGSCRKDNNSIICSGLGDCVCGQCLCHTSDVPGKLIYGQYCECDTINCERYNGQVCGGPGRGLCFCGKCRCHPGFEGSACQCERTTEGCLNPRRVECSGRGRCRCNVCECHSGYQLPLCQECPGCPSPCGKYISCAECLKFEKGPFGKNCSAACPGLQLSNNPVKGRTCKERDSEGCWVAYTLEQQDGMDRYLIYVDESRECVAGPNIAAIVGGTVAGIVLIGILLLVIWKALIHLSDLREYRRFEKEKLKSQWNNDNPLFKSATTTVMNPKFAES

Row | Molecule | HRV Binding % (HRV14) | SLFI (% CL203) RR/1 (RR1/1 mAb) | SLFI (% CL203) LB-2 (LB-2 mAb) | Cl203 % WT (SLFI) (CL203 mAb) | SLFI (% CL203) R6.5 (R6.5 mAb) | LFA-1 Binding % (LFA-1)
1 | N175TSA/QTLG (protein, UniProt P05362 28-532, looked up, variant N175Q S177L A178G) Intercellular adhesion …: QTSVSPSKVILPRGGSVLVTCSTSCDQPKLLGIETPLPKKELLLPGNNRKVYELSNVQEDSQPMCYSNCPDGQSTAKTFLTVYWTPERVELAPLPSWQPVGKNLTLRCQVEGGAPRANLTVVLLRGEKELKREPAVGEPAEVTTTVLVRRDHHGANFSCRTELDLRPQGLELFEQTLGPYQLQTFVLPATPPQLVSPRVLEVDTQGTVVCSLDGLFPVSEAQVHLALGDQRLNPTVTYGNDSFSAKASVSVTAEDEGTQRLTCAVILGNQSQETLQTVTIYSFPAPNVILTKPEVSEGTEVTVKCEAHPRAKVTLNGVPAQPLGPRAQLLLKATPEDNGRSFSCSATLEVAGQLIHKNQTRELRVLYGPRLDERDCPGNWTWPENSQQTPMCQAWGNPLPELKCLKDGTFPLPIGESVTVTRDLEGTYLCRARSTQGEVTRKVTVNVLSPRYEIVIITVVAAAVIMGTAGLSTYLYNRQRKIKKYRLQQAQKGTPMKPNTQATPP | 40% | 19 % CL203 | 44 % CL203 | 75 % WT | 50 % CL203 | 26%
2 | D213GL/HGV (protein, UniProt P05362 28-532, looked up, variant D213H L215V) Intercellular adhesion …: QTSVSPSKVILPRGGSVLVTCSTSCDQPKLLGIETPLPKKELLLPGNNRKVYELSNVQEDSQPMCYSNCPDGQSTAKTFLTVYWTPERVELAPLPSWQPVGKNLTLRCQVEGGAPRANLTVVLLRGEKELKREPAVGEPAEVTTTVLVRRDHHGANFSCRTELDLRPQGLELFENTSAPYQLQTFVLPATPPQLVSPRVLEVDTQGTVVCSLHGVFPVSEAQVHLALGDQRLNPTVTYGNDSFSAKASVSVTAEDEGTQRLTCAVILGNQSQETLQTVTIYSFPAPNVILTKPEVSEGTEVTVKCEAHPRAKVTLNGVPAQPLGPRAQLLLKATPEDNGRSFSCSATLEVAGQLIHKNQTRELRVLYGPRLDERDCPGNWTWPENSQQTPMCQAWGNPLPELKCLKDGTFPLPIGESVTVTRDLEGTYLCRARSTQGEVTRKVTVNVLSPRYEIVIITVVAAAVIMGTAGLSTYLYNRQRKIKKYRLQQAQKGTPMKPNTQATPP | 99% | 231 % CL203 | 107 % CL203 | 128 % WT | 175 % CL203 | 90%
3 | D229QR/HLE (protein, UniProt P05362 28-532, looked up, variant D229H Q230L R231E) Intercellular adhesion …: QTSVSPSKVILPRGGSVLVTCSTSCDQPKLLGIETPLPKKELLLPGNNRKVYELSNVQEDSQPMCYSNCPDGQSTAKTFLTVYWTPERVELAPLPSWQPVGKNLTLRCQVEGGAPRANLTVVLLRGEKELKREPAVGEPAEVTTTVLVRRDHHGANFSCRTELDLRPQGLELFENTSAPYQLQTFVLPATPPQLVSPRVLEVDTQGTVVCSLDGLFPVSEAQVHLALGHLELNPTVTYGNDSFSAKASVSVTAEDEGTQRLTCAVILGNQSQETLQTVTIYSFPAPNVILTKPEVSEGTEVTVKCEAHPRAKVTLNGVPAQPLGPRAQLLLKATPEDNGRSFSCSATLEVAGQLIHKNQTRELRVLYGPRLDERDCPGNWTWPENSQQTPMCQAWGNPLPELKCLKDGTFPLPIGESVTVTRDLEGTYLCRARSTQGEVTRKVTVNVLSPRYEIVIITVVAAAVIMGTAGLSTYLYNRQRKIKKYRLQQAQKGTPMKPNTQATPP | 106% | 94 % CL203 | 100 % CL203 | 210 % WT | 92 % CL203 | 90%
4 | E254DE/KEK (protein, UniProt P05362 28-532, looked up, variant E254K D255E E256K) Intercellular adhesion …: QTSVSPSKVILPRGGSVLVTCSTSCDQPKLLGIETPLPKKELLLPGNNRKVYELSNVQEDSQPMCYSNCPDGQSTAKTFLTVYWTPERVELAPLPSWQPVGKNLTLRCQVEGGAPRANLTVVLLRGEKELKREPAVGEPAEVTTTVLVRRDHHGANFSCRTELDLRPQGLELFENTSAPYQLQTFVLPATPPQLVSPRVLEVDTQGTVVCSLDGLFPVSEAQVHLALGDQRLNPTVTYGNDSFSAKASVSVTAKEKGTQRLTCAVILGNQSQETLQTVTIYSFPAPNVILTKPEVSEGTEVTVKCEAHPRAKVTLNGVPAQPLGPRAQLLLKATPEDNGRSFSCSATLEVAGQLIHKNQTRELRVLYGPRLDERDCPGNWTWPENSQQTPMCQAWGNPLPELKCLKDGTFPLPIGESVTVTRDLEGTYLCRARSTQGEVTRKVTVNVLSPRYEIVIITVVAAAVIMGTAGLSTYLYNRQRKIKKYRLQQAQKGTPMKPNTQATPP | 99% | 178 % CL203 | 81 % CL203 | 180 % WT | 129 % CL203 | 122%
5 | D203TQ/TAD (protein, UniProt P05362 28-532, looked up, variant D203T T204A Q205D) Intercellular adhesion …: QTSVSPSKVILPRGGSVLVTCSTSCDQPKLLGIETPLPKKELLLPGNNRKVYELSNVQEDSQPMCYSNCPDGQSTAKTFLTVYWTPERVELAPLPSWQPVGKNLTLRCQVEGGAPRANLTVVLLRGEKELKREPAVGEPAEVTTTVLVRRDHHGANFSCRTELDLRPQGLELFENTSAPYQLQTFVLPATPPQLVSPRVLEVTADGTVVCSLDGLFPVSEAQVHLALGDQRLNPTVTYGNDSFSAKASVSVTAEDEGTQRLTCAVILGNQSQETLQTVTIYSFPAPNVILTKPEVSEGTEVTVKCEAHPRAKVTLNGVPAQPLGPRAQLLLKATPEDNGRSFSCSATLEVAGQLIHKNQTRELRVLYGPRLDERDCPGNWTWPENSQQTPMCQAWGNPLPELKCLKDGTFPLPIGESVTVTRDLEGTYLCRARSTQGEVTRKVTVNVLSPRYEIVIITVVAAAVIMGTAGLSTYLYNRQRKIKKYRLQQAQKGTPMKPNTQATPP | 111% | 178 % CL203 | 86 % CL203 | 125 % WT | 116 % CL203 | 91%
6 | N240DS/KNA (protein, UniProt P05362 28-532, looked up, variant N240K D241N S242A) Intercellular adhesion …: QTSVSPSKVILPRGGSVLVTCSTSCDQPKLLGIETPLPKKELLLPGNNRKVYELSNVQEDSQPMCYSNCPDGQSTAKTFLTVYWTPERVELAPLPSWQPVGKNLTLRCQVEGGAPRANLTVVLLRGEKELKREPAVGEPAEVTTTVLVRRDHHGANFSCRTELDLRPQGLELFENTSAPYQLQTFVLPATPPQLVSPRVLEVDTQGTVVCSLDGLFPVSEAQVHLALGDQRLNPTVTYGKNAFSAKASVSVTAEDEGTQRLTCAVILGNQSQETLQTVTIYSFPAPNVILTKPEVSEGTEVTVKCEAHPRAKVTLNGVPAQPLGPRAQLLLKATPEDNGRSFSCSATLEVAGQLIHKNQTRELRVLYGPRLDERDCPGNWTWPENSQQTPMCQAWGNPLPELKCLKDGTFPLPIGESVTVTRDLEGTYLCRARSTQGEVTRKVTVNVLSPRYEIVIITVVAAAVIMGTAGLSTYLYNRQRKIKKYRLQQAQKGTPMKPNTQATPP | 82% | 113 % CL203 | 132 % CL203 | 142 % WT | 125 % CL203 | 147%
